Laboratory results published in patent US20060035230A1 (BOYCE THOMPSON INSTITUTE FOR PLANT RESEARCH, published 2006).

Target: T1, PtiDC1Δ70 (AvrPtoB lacking the first 70 amino acids) (Pseudomonas syringae pv. tomato DC3000, UniProt Q8RSY1 71-553)
T1 construct: also called AvrPtoB prey PtiDC1Δ70; avrPtoB (PtiDC1Δ70)
T1 sequence: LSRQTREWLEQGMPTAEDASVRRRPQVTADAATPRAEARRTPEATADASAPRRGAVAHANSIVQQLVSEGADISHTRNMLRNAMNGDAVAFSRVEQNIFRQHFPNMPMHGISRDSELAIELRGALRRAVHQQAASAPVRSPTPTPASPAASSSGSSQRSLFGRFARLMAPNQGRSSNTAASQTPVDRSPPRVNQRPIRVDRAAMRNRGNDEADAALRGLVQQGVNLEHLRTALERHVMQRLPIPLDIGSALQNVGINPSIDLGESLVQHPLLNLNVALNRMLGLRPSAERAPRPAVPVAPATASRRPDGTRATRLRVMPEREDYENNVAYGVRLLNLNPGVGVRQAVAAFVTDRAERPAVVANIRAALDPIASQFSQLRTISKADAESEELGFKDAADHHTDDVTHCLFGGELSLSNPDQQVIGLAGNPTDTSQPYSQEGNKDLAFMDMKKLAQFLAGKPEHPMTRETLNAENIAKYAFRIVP
Assay: LexA yeast two-hybrid, AvrPtoB prey PtiDC1Δ70 against kinase bait

B1: Pti1 kinase (enzyme)
chain: MSCFSCCDDDDMHRATDNGPFMAHNSAGNNGGQRATESAQRETQTVNIQPIAVPSIAVDELKDITDNFGSKALIGEGSYGRVYHGVLKSGRAAAIKKLDSSKQPDREFLAQVSMVSRLKDENVVELLGYCVDGGFRVLAYEYAPNGSLHDILHGRKGVKGAQPGPVLSWAQRVKIAVGAAKGLEYLHEKAQPHIIHRDIKSSNILLFDDDVAKIADFDLSNQAPDMAARLHSTRVLGTFGYHAPEYAMTGQLSSKSDVYSFGVVLLELLTGRKPVDHTLPRGQQSLVTWATPRLSEDKVKQCVDARLNTDYPPKAIAKMAAVAALCVQYEADFRPNMSIVVKALQPLLPRPVPS
notes: Bait fusion in pEG202
binding result: no binding
